Data on one molecule can be found in PMC9320966 (Arthritis & Rheumatology (Hoboken, N.j.), 2022).

The assay has as its target COMP in mouse joint cartilage (Mus musculus, UniProt Q9R0G6). The assay can be described thus: immunostaining of cells or tissue.

Chain of COMP in mouse joint cartilage (Q9R0G6 20-755): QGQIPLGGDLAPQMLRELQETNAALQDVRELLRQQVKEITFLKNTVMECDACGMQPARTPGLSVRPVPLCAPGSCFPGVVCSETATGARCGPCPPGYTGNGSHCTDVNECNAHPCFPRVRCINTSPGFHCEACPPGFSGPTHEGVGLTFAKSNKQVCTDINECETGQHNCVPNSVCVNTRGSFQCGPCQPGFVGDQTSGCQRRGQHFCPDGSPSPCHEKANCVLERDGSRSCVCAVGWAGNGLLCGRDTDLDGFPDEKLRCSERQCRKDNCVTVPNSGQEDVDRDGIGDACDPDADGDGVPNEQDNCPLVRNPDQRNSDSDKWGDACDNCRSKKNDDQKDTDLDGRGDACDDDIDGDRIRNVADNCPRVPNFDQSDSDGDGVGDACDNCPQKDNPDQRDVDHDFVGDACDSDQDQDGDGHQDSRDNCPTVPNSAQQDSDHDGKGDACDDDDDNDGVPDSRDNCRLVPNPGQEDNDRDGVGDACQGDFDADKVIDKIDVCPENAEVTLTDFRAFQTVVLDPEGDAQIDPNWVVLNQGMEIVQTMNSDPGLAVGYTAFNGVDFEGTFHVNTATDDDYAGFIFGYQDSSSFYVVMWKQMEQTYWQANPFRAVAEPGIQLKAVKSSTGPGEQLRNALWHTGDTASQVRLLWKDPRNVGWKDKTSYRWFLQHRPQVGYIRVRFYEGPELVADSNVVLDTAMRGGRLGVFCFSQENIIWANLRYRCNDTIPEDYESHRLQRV

B1: murine monoclonal anti-COMP antibody 15A11 (antibody, V domains shown)
VH: QVQLQQSGAELAKPGASVNLSCKASGYTFTNYWVHWVKQRPGQGLEWIGYINPSNTYISYNQQFKDKATLTADKSSSTAYMQLSRLTYEDSSVYYCARGGFFYDYDVWYFDVWGTGTTVTVSS
VL: DVLMTQIPLSLPVSLGDQASISCRSSQNIVHSNGNTYLEWYLQKPGQSPKLLIYKVSNRFSGVPDRFSGSGSGTDFTLKISRVEAEDLGVYYCFQGSHVPFTFGSGTKLEIK
With B1, the binding result is “binds”.
